Test results published in patent US20210032351A1 (XDCEXPLORER SHANGHAI, published 2021).
Where “and” joins values, the source holds several entries; their conditions need not be identical. Equal values may be shown once. Read-outs that look alike come from different tables or passages of the source. Blank lines part the entries; values can stand above or below the substance they belong to.

Tests used:
[1] = target: human EGFRvIII protein, full length, on transfected cells (human) (UniProt P00533); test: FACS, 293F-hEGFRvIII 1F3 cells; further: test concentration or dose not given here
[2] = target: human EGFRvIII protein, full length, on transfected cells (human) (UniProt P00533); test: FACS, 293F-hEGFRvIII 1C10 cells; further: test concentration or dose not given here
[3] = target: human EGFRvIII protein, full length, on transfected cells (human) (UniProt P00533); test: FACS, 293F-hEGFRvIII 1D11 cells; further: test concentration or dose not given here
[4] = target: human EGFRvIII protein, full length, on transfected cells (human) (UniProt P00533); test: FACS, U87MG-hEGFRvIII 1B3 cells; further: test concentration or dose not given here
[5] = target: human EGFRvIII protein, full length, on transfected cells (human) (UniProt P00533); test: FACS, U87MG-hEGFRvIII 1D1 cells; further: test concentration or dose not given here
[6] = target: human EGFRvIII protein, full length, on transfected cells (human) (UniProt P00533); test: FACS, U87MG-hEGFRvIII 1F9 cells; further: test concentration or dose not given here
[7] = target: human EGFRvIII protein, full length, on transfected cells (human) (UniProt P00533); test: FACS, U87MG-hEGFRvIII 2C3 cells; further: test concentration or dose not given here
[8] = target: human EGFRvIII protein, full length, on transfected cells (human) (UniProt P00533); test: FACS, U87MG-hEGFRvIII 2C6 cells; further: test concentration or dose not given here
[9] = target: human EGFRvIII protein, full length, on transfected cells (human) (UniProt P00533); test: FACS, U87MG-hEGFRvIII 2G2 cells; further: test concentration or dose not given here
[10] = target: human EGFRvIII protein, full length, on transfected cells (human) (UniProt P00533); test: FACS, CHO-K1-hEGFRvIII 1D9 cells; further: test concentration or dose not given here
[11] = target: human EGFRvIII protein, full length, on transfected cells (human) (UniProt P00533); test: FACS, CHO-K1-hEGFRvIII 1E3 cells
[12] = target: human EGFRvIII protein, full length, on transfected cells (human) (UniProt P00533); test: FACS, CHO-K1-hEGFRvIII 2B3 cells
[13] = target: human EGFRvIII protein, full length, on transfected cells (human) (UniProt P00533); test: FACS, CHO-K1-hEGFRvIII 1E10 cells; further: test concentration or dose not given here
[14] = target: human EGFRvIII protein, full length, on transfected cells (human) (UniProt P00533); test: FACS, CHO-K1-hEGFRvIII 1G10 cells
[15] = target: human EGFRvIII protein, full length, on transfected cells (human) (UniProt P00533); test: FACS, CHO-K1-hEGFRvIII 2D11 cells
[16] = target: wild-type EGFR protein on the surfaces of A431 tumor cells and normal human primary hepatocytes (human) (UniProt P00533); test: FACS, A431 tumor cells; further: test concentration or dose not given here
[17] = target: wild-type EGFR protein on the surfaces of A431 tumor cells and normal human primary hepatocytes (human) (UniProt P00533); test: FACS, normal human primary hepatocytes; further: test concentration or dose not given here
pep05 = target: T1, pep05 (cysteine pairing not given here); test: peptide dot matrix ELISA
T1 peptide: KGNYVVTDHGSCVRACK(Biotin)

pep06 = target: T2, pep06 (cysteine pairing not given here); test: peptide dot matrix ELISA
T2 peptide: GNYVVTDHGSCVRACGK(Biotin)

pep07 = target: T3, pep07 (cysteine pairing not given here); test: peptide dot matrix ELISA
T3 peptide: NYVVTDHGSCVRACGAK(Biotin)

pep13 = target: T4, pep13 (cysteine pairing not given here); test: peptide dot matrix ELISA
T4 peptide: HGSCVRACGADSYEMEK(Biotin)

pep14 = target: T5, pep14 (cysteine pairing not given here); test: peptide dot matrix ELISA
T5 peptide: GSCVRACGADSYEMEEK(Biotin)

pep15 = target: T6, pep15 (cysteine pairing not given here); test: peptide dot matrix ELISA
T6 peptide: SCVRACGADSYEMEEDK(Biotin)

pep20 = target: T7, pep20 (cysteine pairing not given here); test: peptide dot matrix ELISA
T7 peptide: CGADSYEMEEDGVRKCK(Biotin)

pep21 = target: T8, pep21; test: peptide dot matrix ELISA
T8 peptide: GADSYEMEEDGVRKCKK(Biotin)

pep04 = target: T9, pep04; test: peptide dot matrix ELISA
T9 sequence (peptide, C-terminal K(Biotin)): KKGNYVVTDHGSCVRAK

pep19 = target: T10, pep19; test: peptide dot matrix ELISA
T10 sequence (peptide, C-terminal K(Biotin)): ACGADSYEMEEDGVRKK

[18] = target: human wild-type EGFR protein on the cell surface (human) (UniProt P00533); test: FACS on CHOk1-EGFR cells
[19] = target: human wild-type EGFR protein on the cell surface (human) (UniProt P00533); test: FACS on A431 tumor cells
[20] = target: human EGFRvIII-hFc protein (human) (UniProt P00533); test: ELISA, EGFRvIII-hFc coated
[21] = target: human EGFRvIII-hFc protein (human) (UniProt P00533); test: ELISA, EGFRvIII-hFc coated; remark: listed apart in the source
[22] = target: human EGFRvIII protein on the cell surface (human) (UniProt P00533); test: FACS on CHOk1-EGFRvIII cells
[23] = target: human EGFRvIII protein on the cell surface (human) (UniProt P00533); test: FACS on U87MG-EGFRvIII cells
[24] = target: human wild-type EGFR protein on the cell surface (human) (UniProt P00533); test: FACS on normal human primary hepatocytes

cell mean fluorescence intensity [1]: 395
cell mean fluorescence intensity [2]: 458
cell mean fluorescence intensity [3]: 388
cell mean fluorescence intensity [4]: 66.9
cell mean fluorescence intensity [5]: 96.4
cell mean fluorescence intensity [6]: 68
cell mean fluorescence intensity [7]: 82.7
cell mean fluorescence intensity [8]: 178
cell mean fluorescence intensity [9]: 182
cell mean fluorescence intensity [10]: 457
cell mean fluorescence intensity [11]: 42
cell mean fluorescence intensity [12]: 109
cell mean fluorescence intensity [13]: 92
cell mean fluorescence intensity [14]: 563
cell mean fluorescence intensity [15]: 77
Substance: known EGFRvIII antibody (purchased from Absoluteantibody, #Ab00184-1.1)

mean fluorescence intensity (MFI) [16]: 388 MFI
mean fluorescence intensity (MFI) [17]: 219 MFI
Substance: Negative control hIgG (antibody)

ELISA signal (pep05): 0.05 and 0.06
ELISA signal (pep06): 0.07 and 0.05
ELISA signal (pep07): 0.05
ELISA signal (pep13): 0.06
ELISA signal (pep14): 0.07
ELISA signal (pep15): 0.05 and 0.06
ELISA signal (pep20): 0.12 and 0.1
ELISA signal (pep21): 0.06
ELISA signal (pep04): 0.05 and 0.06
ELISA signal (pep19): 0.05
Maximum mean fluorescence intensity [18]: 144 MFI
MFI [19]: 388 MFI
Maximum OD450 value [20]: 0.17 OD450
Maximum OD450 value [21]: 0.1 OD450
Maximum mean fluorescence intensity [22]: 133 MFI
Maximum mean fluorescence intensity [23]: 0 MFI
MFI [24]: 219 MFI
Substance: hIgG (antibody)
